Measured values as given in patent publication US20210228738A1.

How the values were obtained:
[1] = target: rhesus macaque IgG (NHP plasma)
[2] = target: total IgG in human serum samples and pooled human plasma
[3] = target: hamster IgG (pooled hamster plasma)

B1: immunoglobulin G-degrading enzyme of Streptococcus pyogenes (IdeS) (protein)
chain: DSFSANQEIRYSEVTPYHVTSVWTKGVTPPANFTQGEDVFHAPYVANQGWYDITKTFNGKDDLLCGAATAGNMLHWWFDQNKDQIKRYLEEHPEKQKINFNGEQMFDVKEAIDTKNHQLDSKLFEYFKEKAFPYLSTKHLGVFPDHVIDMFINGYRLSLTNHGPTPVKEGSKDPRGGIFDAVFTRGDQSKLLTSRHDFKEKNLKEISDLIKKELTEGKALGLSHTYANVRINHVINLWGADFDSNGNLKAIYVTDSDSNASIGMKKYFVGVNSAGKVAISAKEIKEDNIGAQVLGLFTLSTGQDSWNQTN
cleavage of IgG, non-reducing SDS-PAGE and Coomassie stain [1]: In the NHP samples, IgG was similarly cleaved in all NAb titer groups
cleavage of IgG, non-reducing SDS-PAGE and Coomassie Blue staining [2]: IdeS was effective to cleave the IgG in the pooled hamster plasma and pooled human plasma in vitro
cleavage of IgG, non-reducing SDS-PAGE and Coomassie stain [2]: the lowest dose of IdeS cleaved all total IgG (~150 kD) to liberate the Fc fragment (~25 kD)
cleavage of IgG, non-reducing SDS-PAGE and Coomassie Blue staining [3]: IdeS was effective to cleave the IgG in the pooled hamster plasma and pooled human plasma in vitro
